Experiment: soluble on expression in E. coli; label from the status in PepcDB or PDB records
For “MAHHHHHHMDAFRSLTIGTKFSAARNEEAAKLFRNAGKDKGSHGFPDAIGADGAVTLENASDMGSSSLSVPPPSATLNLFGRPTRSHADANAHLGVSAGSDAAAAANTASENKALKAITFKKKRNIWRRNDLQVTGTDLPAPIEHFSDLVRPPLNVPRNVVNNLFARQHKVPTPIQMQAISSLIHHRDVLACAPTGSGKTIAFLVPLFALLKAPDASCGVRALIVTPTAELAQQIEREAFFLMKGQRWKFVQHGQTTKKKDIFIATPGRILSLLEQKLLDLSNVQYLVFDEGDRLWDSRTDFLTVIDRILTACTRTDKVVSLFTATLSEKVEAAARSVMGADPVRIIVHGRRSANTHVKQRLVFCGNELGKVVAMRNLVREGITPPVLVFVQSVERSKELYEEIRMEGLHMAIMHAKMTVEQREETVLQFRLGKIWVLVTTELLARGIDFKNVGTVINFDFPATVDSYIHRVGRTGRAGKEGTAITFFTEDDKERLPPIAKVMQDSGNAVEDWILGIKVDRSTRRRLERTTPQRTIVSTRKRMLVAQQRVQRQYRRLEAEKAAKQASKRSKGCGDCDRDDGDDSTDDA”, the “soluble on expression in E. coli” value was “not soluble”.
With “MLKFRASFLSLALMLAVPFAPQAVAKTAATTAASQPEIASGSAMIVDLNTNKVIYSNHPDLVRPIASITKLMTAMVVLDARLPLDEILKVDISQTPEMKGVYSRVRLNSEISRKNMLLLALMSSENRAAASLAHYYPGGYNAFIKAMNAKAKALGMTHTRFVEPTGLSIHNVSTARDLTKLLIATKQYPLIGQLSTTREDMATFSHPAYTLPFRNTNHLVYRDNWNIQLTKTGFTNAAGHCLVMRTVINNKPVALVVMDAFGKYTHFADASRLRTWIETGKVMPVPAAALSYKKQKAAQMAAASASAGAQTAQND” the “soluble on expression in E. coli” value was “not soluble”.
In the case of “MDNEFTSPVYGVKAVPVERIRANSYNPNVTAPPEMRLLELSIWEDGYTMPCVCYYIEKEDVYELVDGYHRYKVMMTSPRIYKRENGLLPVTVIRKDLAERMASTIRHNRARGMHKIELMTRLVGELTRSGMSDSWIRRNLGMDKDELLRLKQISGLAELFADKEFRKAVE”, the “soluble on expression in E. coli” value is reported as “not soluble”.
In the case of “MVISLKNRNFLKLLDYTPAEIQHLIDLAIELKAAKKAGCEKQTLIGKNIALIFEKTSTRTRCAFEVAAFDQGAQVTYLGPSGSQIGHKESMKDTARVLGRMYDGIEYRGFGQHIVEELGEYAGVPVWNGLTDEFHPTQILADLMTMLEHAPGKTLPELSFAYLGDARNNMGNSLMVGAAKMGMDIRLIAPKSFWPDAALVAQCREIASVTGARITLTESVEDGVHGVDFLYTDVWVSMGEPKEAWAERVSLMTPYQVNQQVVNATGNPDVKFMHCLPAFHNEHTKVGREIEMAYGLKGLEVTEEVFESAGSIVFDEAENRMHTIKAVMVATLGD”, the “soluble on expression in E. coli” value is reported as “not soluble”.
For “MVQEIIVDSGDIEFLTTPKEYKQQLLSLIECARQRIFITALYLQDDEAGREILHALYQAKANFPTIEINIFVDFNRGQRGLIGEKASLGNRALYLKLAHEYPHTVNIYGVAVKRKEVFGVLHLKGMVFDEKLFYTGASINDIYLHQGERYRLDRYCTINSAALADSFCHYLSDTFIDSGLAPLLNQEWLPDAVEQKKNLIALKLQLKKSHYIVAQQQGLSQSKIVSNKALITPLVGFGRRKNQLNRATRHLVQKADDNMVLFTPYFNLPHSLAKDVIRALKRGVKTTVVVGDKTANDFFIGNDEDFSTIGIIPYVYEMLLKRFVKRYQNFIDQGLLNIHLWKDKDNSFHLKGLRVDDRYHLITGSNLNPRAWALDLENGLVVDDVNKQLLQKTDEELLGILVNTSKVSHFSDIDSVEDYPEKPQKLLKKIRVAQIDRVLKRFLLEHHHHHH”, the “soluble on expression in E. coli” value was “soluble”.
With “MGSTSSLYAAIDLGSNSFHMLVVREVAGSIQTLTRIKRKVRLAAGLNSENDLSNEAMERGWQCLRLFAERLQDIPPSQIRVVATATLRLAVNAGDFIAKAQEILGCPVQVISGEEEARLIYQGVAHTTGGADQRLVVDIGGASTELVTGTGAQTTSLFSLSMGCVTWLERYFADRNLGQENFDAAEKAAREVLRPVADELRYHGWKVCVGASGTVQALQEIMMAQGMDERITLEKLQQLKQRAIHCGRLEELEIDGLTLERALVFPSGLAILIAIFTELNIQCMTLAGGALREGLVYGMLHLAVEQDIRSRTLRNIQRRFMIDIDQAQRVAKVAANFFDQVENEWHLEAISRDLLISACQLHEIGLSVDFKQAPQHAAYLVRNLDLPGFTPAQKKLLATLLLNQTNPVDLSSLHQQNAVPPRVAEQLCRLLRLAIIFASRRRDDLVPEMTLQANHELLTLTLPQGWLTQHPLGKEIIAQENQWQSYVHWPLEVH” the “soluble on expression in E. coli” value was “not soluble”.
In the case of “MSLRFITPEKRTIEELRFPTREAADNAVKKIADGLSFDDLVKAENKTLNDIKKGPFTENELPSYLSSEIFELKQGQISAVINDLQGPVIIRVTDITPAGPIPFEKVEDNIRQTLAQNRAADDIRNSYTEIENARFEGASEGHHHHHH”, the “soluble on expression in E. coli” value is reported as “soluble”.
For “MPTPPGQSSSQPLPAKELGYFKKIVKSYEQKQYKAGLKFAQKILTSPGFAEHGETLAMKGLILNCMGKLQEAQDCVRRGLVSDLRSYVCWHVFGLIQKTEKKYDEAIKAYKRALMLEKDNLQILRDLSLLQIHIRDYDGYLSSKYELLQLRQTQRVSWLGYIVAHHLLKEHNLALGIMAEYIKNNTPSGYDFEFSELILYQNLIMREAGLPDVALQKLEENSTHIVDKVAYMETRANLLMDLEQPKQAENVWRALIERNPDSLEYYDMLEKCMGIKDSPKAQLAMLDGLAEKFKRAAAPRRLALYLVEGEELRRRLHEWMIPMLRKGAPSLFASLVPLYKYPQKQAVIESLITEYVKKMDDEGYGNVSLDGKDQECEPPTTALWLYVLASHHFDRCGMTQLALNYIERAIQHTPTVVENYMLKARIYKHAGDYDEAARWMEEAQSLDTADRYINGKCGKYLLRAKRSDEANKMLAKFTREGENAASHLTDMQCMWYELESGRAFRSVNKYGEALRKAHHIDFHFNTWIEDQYDFHTYCLRKMTLCSYIRLLRMCDKLRDADYYYQGAKLAIKIYLRMIDRPDDMNEHSALIKEGMTDQEIKKMKKKLKKQKELQEEEEKKKKDKEQKEEGLQRGPQIDAEALLKTEDPLGEAAKFCHNIHTFGTQKVTGYALCAEVYRRKGKVLLALKCLNEGEDREPTHPLLHVQKVKFLAYWPKCELSGLVKETADELMKCVYGAERDAAELNEKFKIEHQHDFAHRLAYAEAQYSIDSSTNLISWILKSIEDSKVNGRSLKMMIKLKDGIEYGKYGKWSKDDMEKLRKQVHSLFPLSLDFGGGVQHKSASAAPTSAETN”, the “soluble on expression in E. coli” value was “not soluble”.
With “MKSYTKHTHTNRLASESSPYLLQHAHNPVEWFPWGEEALQKAKAEDKPILVSIGYSACHWCHVMEHECFEKEEVAAVMNDLFINIKIDREERPDLDQIYMDAVSAMGLRGGWPLNVFLTPDAKPFYGGTYFPQDHWLNLLGQISNAYLNHREDILKSAESFTESLNQSDVF” the “soluble on expression in E. coli” value was “not soluble”.
For “MTKLTIFYDGTCPLCAKEMKALRQHDHKQEINTVDIYSDAFSAYPQINPDRANTILHALDNQGNLLLGLDVTYRAWQLVGRGWLYAPLRWPLIRPVADWLYLRFAQNRYRISYWLTGTSRCNSGRCSR”, the “soluble on expression in E. coli” value was “not soluble”.
In the case of “MSLALLLRVRRLRLDRAERAQGRQLLRVRAAAQEHTERQAAQRDYRDWRLAEEQRLFLACQAAMLDRRRLEAWQQQVGLLREKEAGLEQDCAEAAQRLEGERERLRQCRRELLERQRQLEKFAELERHVDAERQGLRERSEEGELEEFTRHETWPCSSLEHHHHHH”, the “soluble on expression in E. coli” value is reported as “not soluble”.
In the case of “MQQNIRIQKNQYDTATHPTASSTTWKYVTYDETSETFGMSEQVADPCNHCPKPRNYNSECKDEDVEKHFEKVMPCVHTYTIIYGNVHHLPNHPIIRNLRHNHY”, the “soluble on expression in E. coli” value is reported as “soluble”.
With “MTKAELRRRARAAWRRLDLKALSRAVGAALLPWLRERGFRHILLYHPLPHELNLLPLMEAYPARYYLPKVAGKGLTVHPFGPLAPGPFGLLEPTTPPEDPRVLDLVVVPGLAFDREGYRLGHGQGFYDRFLKEVRAATVGVVPQALLFPALPRDPWDVPVDHLATEAGVEAVKRPAPGPGGLLD” the “soluble on expression in E. coli” value was “soluble”.
In the case of “MSHLYDPTTQYYTGEYPKQKQPAPGVQAKMTPVPDCGEKSYVGSGRLKDRKALVTGGDSGIGRAAAIAYAREGADVAINYLPAEEEDAQQVKALIEECGRKAVLLPGDLSDESFARSLVHKAREALGGLDILALVAGKQTAIPEIKDLTSEQFQQTFAVNVFALFWITQEAIPLLPKGASIITTSSIQAYQPSPHLLDYAATKAAILNYSRGLAKQVAEKGIRVNIVAPGPIWTALQISGGQTQDKIPQFGQQTPMKRAGQPAELAPVYVYLASQESSYVTAEVHGVCGGEHLG”, the “soluble on expression in E. coli” value is reported as “not soluble”.
For “MKQADELRFNEDGLIPAIVQDAASKEVLTLAYMNKESYEKTLETKETWFYSRSRQALWHKGETSGNTQAVKGIRYDCDQDALLVLVEPSGPACHTGSYSCFTKEQTEEQAADRFGIMNELERVIAERQAEMPEGAYTTYLFREGVDKILKKVGEEASEVIIAAKNRDHEELKWEAADLLYHLLVLLREQSLPLDDVLDVLKKRHSEIEELEHHHHHH”, the “soluble on expression in E. coli” value was “not soluble”.
With “MSLNLSKTLKHVYQEAKVSDLFPITHLNSPCIFESQSGLVGSVIKVNGAAFEIEEAETLNHQRFLLHQALVSLDSRFIIYVTTHRQKISCPLIGEFKPGFAKDLDERYQQRFKDKNLYKNTLYITVVLKGDDTSKTGSWLKWAKSLSIKGNSELSEHHREQSIQTLNRVVEQLQANLNPFEATILGKQDEVLGFSELLQFLGLVVNAGQTTSFKHPVCSPPIANSIPQTFKQEVKYPEGHLGQYLSSCQLLFGECIQFQGNTQKDCVFGAMLSLKKYPTNTASILLDSMLSLDCEFIATHTFAPIGRDSALDTISKKRSKLLSAEDKALSQTTALSDLEDGIASETLLLGAHHHTVMLLAPNKSLLDAAILEATKRYGSAGIVVVKETLGLEPAFWSQLPCNQHFITRASLITSQNFVDFCPLHNTQTGFSNENFLGGAVTLLETPSKTPVYFNYHARGSKTEGHHHHHH” the “soluble on expression in E. coli” value was “soluble”.
For “MGSDKIHHHHHHMSEEAFDAIIVGAGLAGCVAAYVLAKEGADVLVIERGNYAGSKNMTGGRLYAHSLERIIPGFAKEAPIERKVTKEKVTFLTDDTGVTLDYHNGRDQSPLQESYTLLRGEFDQWLMGKAEEVGAQFITGIRVDEILTQDGKVIGVKADGDELTAKAVILAEGVNPILGEQLGMVKPKVSADAMAVGAKELIELPESVIKDRFNLKDDEGAAWLFAGSPSNGLMGGGFIYTNRNSISLGIVCGLHGIGESDKSVPQMLEDFKNHSLIKPLIEGGKLLEYSGHVVPEAGLNMVPKLVDHGVLITGDAAGFCLNVGYTVRGMDLAIASGEAAAKAVLAARAQQDFSAQGLSSYQSLLEESFLMKDMKLYKQLPAFMETPRIFNQYPKMVADIMHEMFIIDGTPAQPLRKTLLKHCKEVGFMNLIKDGYKGVTSI”, the “soluble on expression in E. coli” value was “not soluble”.
For “MSSKEQKTPNEQVSEEMENTAEQQVEATQETGECVDPRVAELEVQLSDALQRERESLLRAKAEVENIRRRTELDVEKAHKFALERFSSELLPVIDNLERALDTADKTNTELISMIEGVELTLKSLLDAVGKFGIEVVGETHVPFNPEVHQAMTMLESADHEPNHVMMVMQKGYTLNGRLLRPAMVAVSKAKS”, the “soluble on expression in E. coli” value was “not soluble”.
For “MGSDKIHHHHHHMNEIKRIDTVQQYNDYFGMETLHPLVTVIDAREANPVHFCPKLYNLYAILMKDPDCGTLKYGRSIYDYQQGTMLFLAPGQVMGSDDDGQLHQPGGWLLAFHPELVRNTPLAQFIKNYSFFSYSANEALHLSEQERRTIIDCMCKIREELLHPIDKHTKSLITDNIKLLLDYCERFYDRQFETRENVNLDILARFEQTLDDYLASNLPISKGTPTVQYCADKLCLSANYLSDLLKKETGVSALKHIQQKMLDIAKERVFDVTKSISEISYELGFPYPQHFSRWFKKMVGVTPNEYRQNRNN”, the “soluble on expression in E. coli” value was “not soluble”.
